# Source: patent US20050008615A1 (GlaxoSmithKline, published 2005)
# “And” between values parts separate entries of the source, which are not always exact repeats. Identical values can stand only once.
# T1: IL-18 receptor alpha chain (UniProt Q13478 19-329, limits assumed)
# T1 construct: also called IL-18Rα; IL-18 Rα
# T1 sequence (looked up): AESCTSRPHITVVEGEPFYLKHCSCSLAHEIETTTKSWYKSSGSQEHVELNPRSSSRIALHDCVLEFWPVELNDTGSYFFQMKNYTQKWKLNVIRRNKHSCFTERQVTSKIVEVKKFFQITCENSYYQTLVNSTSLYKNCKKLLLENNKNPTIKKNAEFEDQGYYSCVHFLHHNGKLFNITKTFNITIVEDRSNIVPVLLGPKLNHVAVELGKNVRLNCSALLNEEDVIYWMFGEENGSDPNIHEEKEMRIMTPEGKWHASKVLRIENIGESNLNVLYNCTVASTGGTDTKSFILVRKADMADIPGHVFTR
# Tests used:
# [1] = biological target: T1, IL-18 receptor alpha chain; test: SPR (BIAcore)
# [2] = biological target: T2, IL-18 receptor (heterodimeric surface receptor composed of α- and β-chains) on KG-1 cells; test: cell-based or functional assay
# [3] = biological target: T2, IL-18 receptor (heterodimeric surface …); test: cell-based or functional assay; remark: listed apart in the source
Kd [1] [µM],"NF-κB bioassay, reduction in potency relative to the native IL-18 [2] [fold]",NF-κB KG-1 EC50 [3],"NF-κB KG-1 EC50 (ng/ml), av. [3] [ng/mL]",Binder
8.26,,0.044 µg/mL,44,"human IL-18 C38S, C68S, L144C (SEQ ID NO:9) monopegylated at C144 with 30K PEG (ligand, methoxy polyethylene glycol maleimide, 30,000 Da, on Cys 144, also called IL-18 C144PEG30K) YFGKLESKLSVIRNLNDQVLFIDQGNRPLFEDMTDSDSRDNAPRTIFIISMYKDSQPRGMAVTISVKSEKISTLSCENKIISFKEMNPPDNIKDTKSDIIFFQRSVPGHDNKMQFESSSYEGYFLACEKERDLFKLILKKEDECGDRSIMFTVQNED"
0.534,,,2.6,"human IL-18 C38S, C68S, L144C (SEQ ID NO:9) (ligand, Non-pegylated substitution mutant; also called IL-18 C144 (C38S, C68S, L144C)) YFGKLESKLSVIRNLNDQVLFIDQGNRPLFEDMTDSDSRDNAPRTIFIISMYKDSQPRGMAVTISVKSEKISTLSCENKIISFKEMNPPDNIKDTKSDIIFFQRSVPGHDNKMQFESSSYEGYFLACEKERDLFKLILKKEDECGDRSIMFTVQNED"
6.34,,0.047 µg/mL,47,"human IL-18 C38S, C68S, D157C (SEQ ID NO:10) monopegylated at C157 with 30K PEG (ligand, methoxy polyethylene glycol maleimide, 30,000 Da, on Cys 157, also called IL-18 C157PEG30K; 157C-30K) YFGKLESKLSVIRNLNDQVLFIDQGNRPLFEDMTDSDSRDNAPRTIFIISMYKDSQPRGMAVTISVKSEKISTLSCENKIISFKEMNPPDNIKDTKSDIIFFQRSVPGHDNKMQFESSSYEGYFLACEKERDLFKLILKKEDELGDRSIMFTVQNEC"
5.19,,0.071 µg/mL and 0.092 µg/mL,81.5,"human IL-18 C38S, C68S, L144C (SEQ ID NO:9) monopegylated at C144 with 20K PEG (ligand, methoxy polyethylene glycol maleimide, 20,000 Da, on Cys 144, also called IL-18 C144PEG20K) YFGKLESKLSVIRNLNDQVLFIDQGNRPLFEDMTDSDSRDNAPRTIFIISMYKDSQPRGMAVTISVKSEKISTLSCENKIISFKEMNPPDNIKDTKSDIIFFQRSVPGHDNKMQFESSSYEGYFLACEKERDLFKLILKKEDECGDRSIMFTVQNED"

# The remaining lines, values behind:
Binder,Kd [1] [µM],"NF-κB bioassay, reduction in potency relative to the native IL-18 [2] [fold]",NF-κB KG-1 EC50 [3],"NF-κB KG-1 EC50 (ng/ml), av. [3] [ng/mL]"
"human IL-18 C38S, C68D, D157C (SEQ ID NO:8) (ligand, Non-pegylated substitution mutant; also called IL-18 C157 (C38S, C68D, D157C)) YFGKLESKLSVIRNLNDQVLFIDQGNRPLFEDMTDSDSRDNAPRTIFIISMYKDSQPRGMAVTISVKDEKISTLSCENKIISFKEMNPPDNIKDTKSDIIFFQRSVPGHDNKMQFESSSYEGYFLACEKERDLFKLILKKEDELGDRSIMFTVQNEC",0.196,~10,0.004 µg/mL,4
"human IL-18 C38S, C68S, D157C (SEQ ID NO:10) (ligand, Non-pegylated substitution mutant; also called IL-18 C157 (C38S, C68S, D157C)) YFGKLESKLSVIRNLNDQVLFIDQGNRPLFEDMTDSDSRDNAPRTIFIISMYKDSQPRGMAVTISVKSEKISTLSCENKIISFKEMNPPDNIKDTKSDIIFFQRSVPGHDNKMQFESSSYEGYFLACEKERDLFKLILKKEDELGDRSIMFTVQNEC",0.41,,,2
"human IL-18 C38S, C68D, D157C (SEQ ID NO:8) monopegylated at C157 with 20K PEG (ligand, methoxy polyethylene glycol maleimide, 20,000 Da, on Cys 157, also called IL-18 C157PEG20K; 157C-20K) YFGKLESKLSVIRNLNDQVLFIDQGNRPLFEDMTDSDSRDNAPRTIFIISMYKDSQPRGMAVTISVKDEKISTLSCENKIISFKEMNPPDNIKDTKSDIIFFQRSVPGHDNKMQFESSSYEGYFLACEKERDLFKLILKKEDELGDRSIMFTVQNEC",5.16,,,37.3
"human IL-18 C38S, C68D, L144C (SEQ ID NO:7) monopegylated at C144 with 30K PEG (ligand, methoxy polyethylene glycol maleimide, 30,000 Da, on Cys 144, also called IL-18 C144PEG30K) YFGKLESKLSVIRNLNDQVLFIDQGNRPLFEDMTDSDSRDNAPRTIFIISMYKDSQPRGMAVTISVKDEKISTLSCENKIISFKEMNPPDNIKDTKSDIIFFQRSVPGHDNKMQFESSSYEGYFLACEKERDLFKLILKKEDECGDRSIMFTVQNED",4.26,,0.038 µg/mL,38
"human IL-18 C38S, C68D, L144C (SEQ ID NO:7) monopegylated at C144 with 40K PEG (ligand, methoxy polyethylene glycol maleimide, 40,000 Da, on Cys 144, also called IL-18 C144PEG40K) YFGKLESKLSVIRNLNDQVLFIDQGNRPLFEDMTDSDSRDNAPRTIFIISMYKDSQPRGMAVTISVKDEKISTLSCENKIISFKEMNPPDNIKDTKSDIIFFQRSVPGHDNKMQFESSSYEGYFLACEKERDLFKLILKKEDECGDRSIMFTVQNED",5.35,,0.271 µg/mL and 0.33 µg/mL,300
"human IL-18 C38S, C68S, D157C (SEQ ID NO:10) monopegylated at C157 with 20K PEG (ligand, methoxy polyethylene glycol maleimide, 20,000 Da, on Cys 157, also called IL-18 C157PEG20K; 157C-20K) YFGKLESKLSVIRNLNDQVLFIDQGNRPLFEDMTDSDSRDNAPRTIFIISMYKDSQPRGMAVTISVKSEKISTLSCENKIISFKEMNPPDNIKDTKSDIIFFQRSVPGHDNKMQFESSSYEGYFLACEKERDLFKLILKKEDELGDRSIMFTVQNEC",5.5,,0.049 µg/mL and 0.059 µg/mL,54
"human IL-18 C38S, C68D, L144C (SEQ ID NO:7) (ligand, Non-pegylated substitution mutant; also called IL-18 C144 (C38S, C68D, L144C)) YFGKLESKLSVIRNLNDQVLFIDQGNRPLFEDMTDSDSRDNAPRTIFIISMYKDSQPRGMAVTISVKDEKISTLSCENKIISFKEMNPPDNIKDTKSDIIFFQRSVPGHDNKMQFESSSYEGYFLACEKERDLFKLILKKEDECGDRSIMFTVQNED",0.222,~10,0.0035 µg/mL and 0.0016 µg/mL,2.6
"human IL-18 C38S, C68D, L144C (SEQ ID NO:7) monopegylated at C144 with 20K PEG (ligand, methoxy polyethylene glycol maleimide, 20,000 Da, on Cys 144, also called IL-18 C144PEG20K) YFGKLESKLSVIRNLNDQVLFIDQGNRPLFEDMTDSDSRDNAPRTIFIISMYKDSQPRGMAVTISVKDEKISTLSCENKIISFKEMNPPDNIKDTKSDIIFFQRSVPGHDNKMQFESSSYEGYFLACEKERDLFKLILKKEDECGDRSIMFTVQNED",2.69,,0.058 µg/mL and 0.066 µg/mL and 0.042 µg/mL,55.3
"human IL-18 C38S, C68D, D157C (SEQ ID NO:8) monopegylated at C157 with 40K PEG (ligand, methoxy polyethylene glycol maleimide, 40,000 Da, on Cys 157, also called IL-18 C157PEG40K; 157C-40K) YFGKLESKLSVIRNLNDQVLFIDQGNRPLFEDMTDSDSRDNAPRTIFIISMYKDSQPRGMAVTISVKDEKISTLSCENKIISFKEMNPPDNIKDTKSDIIFFQRSVPGHDNKMQFESSSYEGYFLACEKERDLFKLILKKEDELGDRSIMFTVQNEC",22.9,,,278
"human IL-18 C38S, C68D, D157C (SEQ ID NO:8) monopegylated at C157 with 30K PEG (ligand, methoxy polyethylene glycol maleimide, 30,000 Da, on Cys 157, also called IL-18 C157PEG30K; 157C-30K) YFGKLESKLSVIRNLNDQVLFIDQGNRPLFEDMTDSDSRDNAPRTIFIISMYKDSQPRGMAVTISVKDEKISTLSCENKIISFKEMNPPDNIKDTKSDIIFFQRSVPGHDNKMQFESSSYEGYFLACEKERDLFKLILKKEDELGDRSIMFTVQNEC",5.33,,0.094 µg/mL and 0.043 µg/mL,68.5
